Data published in PMC11481871, “Discovery of GuaB inhibitors with efficacy against Acinetobacter baumannii infection” (mBio, 2024).

Columns and labels:
[1] = target: the molecule itself; experiment: crystal structure; A. baumannii GuaBΔCBS (21 mg/mL) with 5 mM IMP, vapor diffusion at room temperature, 0.1 M HEPES pH 7.5, 20% isopropanol, 10% PEG4000; crystals soaked with inhibitor; space group P21, eight copies in the asu
[2] = target: the molecule itself; experiment: crystal structure; S. aureus GuaBΔCBS (27 mg/mL) with 5 mM IMP, vapor diffusion at room temperature, 0.1 M bicine pH 9.0, 0.1 M NaCl, 30% PEG550 MME; crystals soaked with inhibitor; space group I4, one molecule in the asu
[3] = target: the molecule itself; experiment: crystal structure; E. coli GuaBΔCBS (28 mg/mL) with 5 mM IMP, vapor diffusion at room temperature, 0.1 M bicine pH 9.0, 20% PEG 6000; crystals soaked with inhibitor; space group I4, one molecule in the asu

B1: A. baumannii GuaB with CBS domain deletion (M1-G488_ΔM93-R201) (enzyme)
chain: MLTIVQEALTFDDVLLLPAYSTVLPKDVSLKTRLTRGIYLNIPLVSAAMDTVTESRMAIAMAQNGGIGILHKNMDIAAQAAEVRRVKKFEAGKAESYPNSCKDDLGRLRVGAAVGTGADTPSRVEALVEAGVDVIVVDTAHGHSAGVIERVRWVKQNFPQVQVIGGNIATGDAALALLDAGADAVKVGIGPGSICTTRIVAGIGMPQISAIDSVASALKDQIPLIADGGIRFSGDMAKAIGAGASTIMVGSLLAGTEEAPGEVEFFQGRYYKAYRGMGSLGAMAGATGSADRYFQDSKAGAEKLVPEGIEGRVPYKGPMGNIVHQMMGGLRSSMGYTGSAVIEDLRQNAKFVKITSAGMSESHVHDVTITKEAPNYRVG
notes: cloned into a modified pET52b vector; Eight copies in the asymmetric unit (octamer of two tetramers); also called A. baumannii GuaBΔCBS; GuaBΔCBS; source: E. coli BL21 (DE3) Gold, purified (HisTrap FF, Superdex200 size-exclusion)
stoichiometry N [1]: 8

B2: S. aureus GuaBΔCBS (W2-F488_ΔE92-R219) (enzyme)
chain: WESKFAKESLTFDDVLLIPAQSDILPKDVDLSVQLSDKVKLNIPVISAGMDTVTESKMAIAMARQGGLGVIHKNMGVEEQADEVQKVKRSLLVAAAIGISKDTDIRAQKLVEAGVDVLVIDTAHGHSKGVIDQVKHIKKTYPEITLVAGNVATAEATKDLFEAGADIVKVGIGPGSICTTRVVAGVGVPQITAIYDCATEARKHGKAIIADGGIKFSGDIIKALAAGGHAVMLGSLLAGTEESPGATEIFQGRQYKVYRGMGSLGAMEKGSNDRYFQEDKAPKKFVPEGIEGRTAYKGALQDTIYQLMGGVRAGMGYTGSHDLRELREEAQFTRMGPAGLAESHPHNIQITKESPNYSF
notes: Crystallised with IMP and soaked with G1, G2 or G8; one molecule in the asymmetric unit, the tetramer arises from the fourfold axis of space group I4; also called S.a; GuaB; source: E. coli BL21 (DE3) Gold, purified (HisTrap FF, Superdex200 size-exclusion; same protocol as A. baumannii GuaBΔCBS)
stoichiometry N [2]: 4

B3: E. coli GuaBΔCBS (L2-S488_ΔE90-R217) (enzyme, Escherichia coli, UniProt P0ADG7 2-488, looked up)
chain: LRIAKEALTFDDVLLVPAHSTVLPNTADLSTQLTKTIRLNIPMLSAAMDTVTEARLAIALAQEGGIGFIHKNMSIERQAEEVRRVKKHLRVGAAVGAGAGNEERVDALVAAGVDVLLIDSSHGHSEGVLQRIRETRAKYPDLQIIGGNVATAAGARALAEAGCSAVKVGIGPGSICTTRIVTGVGVPQITAVADAVEALEGTGIPVIADGGIRFSGDIAKAIAAGASAVMVGSMLAGTEESPGEIELYQGRSYKSYRGMGSLGAMSKGSSDRYFQSDNAADKLVPEGIEGRVAYKGRLKEIIHQQMGGLRSCMGLTGCGTIDELRTKAEFVRISGAGIQESHVHDVTITKESPNYRLGS
notes: GuaB (inosine-5'-monophosphate dehydrogenase) of Escherichia coli, residues L2-S488 with the CBS domains (E90-R217) deleted; Crystallised with IMP and soaked with G1, G2 or G8; one molecule in the asymmetric unit, the tetramer arises from the fourfold axis of space group I4; also called E.c; GuaB; source: E. coli BL21 (DE3) Gold, purified (HisTrap FF, Superdex200 size-exclusion; same protocol as …)
stoichiometry N [3]: 4
